Tests used:
[1] = target: T1, mouse IL1RAP ECD displayed on HEK-293F cells (pDisplay) (mouse, UniProt Q61730 21-367); assay: HEK-293F cells (MSD)
T1 sequence: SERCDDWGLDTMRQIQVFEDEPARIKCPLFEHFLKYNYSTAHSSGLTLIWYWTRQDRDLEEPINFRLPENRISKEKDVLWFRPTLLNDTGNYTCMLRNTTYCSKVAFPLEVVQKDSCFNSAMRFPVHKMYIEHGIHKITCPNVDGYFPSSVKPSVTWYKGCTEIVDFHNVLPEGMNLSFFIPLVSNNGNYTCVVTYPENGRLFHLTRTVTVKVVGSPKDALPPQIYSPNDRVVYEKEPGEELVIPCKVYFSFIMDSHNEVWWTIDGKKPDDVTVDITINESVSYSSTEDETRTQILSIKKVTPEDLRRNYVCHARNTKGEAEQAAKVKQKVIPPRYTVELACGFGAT

[2] = target: T2, human IL1RAP ECD displayed on HEK-293F cells (pDisplay) (human, UniProt Q9NPH3 21-367); assay: HEK-293F cells (MSD)
T2 construct: also called Human clone HE2 IL1RAP FL-ECD cell line
T2 sequence: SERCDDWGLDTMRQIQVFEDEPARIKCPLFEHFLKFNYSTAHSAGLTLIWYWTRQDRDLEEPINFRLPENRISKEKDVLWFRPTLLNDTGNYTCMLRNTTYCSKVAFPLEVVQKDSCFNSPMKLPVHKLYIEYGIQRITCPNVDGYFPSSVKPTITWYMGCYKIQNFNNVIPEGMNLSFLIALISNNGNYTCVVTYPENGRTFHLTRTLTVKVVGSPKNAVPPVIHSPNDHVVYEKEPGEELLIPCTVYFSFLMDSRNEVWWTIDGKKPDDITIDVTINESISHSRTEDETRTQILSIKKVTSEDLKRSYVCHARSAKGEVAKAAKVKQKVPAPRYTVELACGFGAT

[3] = target: T3, cyno IL1RAP ECD displayed on HEK-293F cells (pDisplay) (cynomolgus monkey, UniProt P59822 21-367 (rhesus entry)); assay: HEK-293F cells (MSD)
T3 sequence: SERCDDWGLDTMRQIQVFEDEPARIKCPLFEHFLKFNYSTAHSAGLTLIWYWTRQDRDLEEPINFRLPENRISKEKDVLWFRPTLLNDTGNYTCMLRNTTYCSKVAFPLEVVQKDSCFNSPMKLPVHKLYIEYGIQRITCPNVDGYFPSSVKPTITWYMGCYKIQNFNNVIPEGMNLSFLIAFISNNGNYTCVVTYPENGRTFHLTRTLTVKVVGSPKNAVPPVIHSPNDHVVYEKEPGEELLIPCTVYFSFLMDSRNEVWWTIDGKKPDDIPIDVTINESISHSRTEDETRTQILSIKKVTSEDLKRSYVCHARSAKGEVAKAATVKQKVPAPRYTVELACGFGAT

[4] = target: T4, rat IL1RAP ECD displayed on HEK-293F cells (pDisplay) (rat, UniProt Q63621 21-367); assay: HEK-293F cells (MSD)
T4 sequence: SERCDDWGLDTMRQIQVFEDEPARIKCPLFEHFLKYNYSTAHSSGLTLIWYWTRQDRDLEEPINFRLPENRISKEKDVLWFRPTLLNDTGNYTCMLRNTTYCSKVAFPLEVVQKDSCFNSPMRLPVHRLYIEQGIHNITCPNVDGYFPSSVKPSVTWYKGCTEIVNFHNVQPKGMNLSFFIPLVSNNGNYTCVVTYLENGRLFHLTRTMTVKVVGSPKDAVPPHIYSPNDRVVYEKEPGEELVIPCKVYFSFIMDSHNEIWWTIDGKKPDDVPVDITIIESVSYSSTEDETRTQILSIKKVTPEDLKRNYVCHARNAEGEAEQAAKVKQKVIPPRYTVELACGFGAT

[5] = target: T5, recombinant cyno IL1RAP ECD (cynomolgus monkey, UniProt P59822 21-367 (rhesus entry)); assay: recombinant protein
T5 construct: also called rcynoIL1RAP
T5 sequence: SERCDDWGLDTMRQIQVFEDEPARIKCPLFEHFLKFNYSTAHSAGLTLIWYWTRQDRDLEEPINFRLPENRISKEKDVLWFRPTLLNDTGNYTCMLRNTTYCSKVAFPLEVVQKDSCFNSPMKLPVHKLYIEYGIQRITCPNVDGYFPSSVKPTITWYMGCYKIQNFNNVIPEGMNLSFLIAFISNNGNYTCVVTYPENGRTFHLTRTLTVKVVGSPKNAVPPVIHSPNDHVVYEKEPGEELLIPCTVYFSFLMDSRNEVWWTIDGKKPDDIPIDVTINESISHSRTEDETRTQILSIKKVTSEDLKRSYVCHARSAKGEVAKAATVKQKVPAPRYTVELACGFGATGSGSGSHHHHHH

Measured: binding result

B1: IAPB38 (antibody, human IgG4 S228P, kappa, F234A L235A, V domains shown)
VH: EVQLLESGGGLVQPGGSLRLSCAASGFTFSNYAMNWVRQAPGKGLEWVSGINYGGGSKYYADSVKGRFTISRDNSKNTLYLQMNSLRAEDTAVYYCAKDYGPFALDYWGQGTLVTVSS
VL: EIVLTQSPATLSLSPGERATLSCRASQSVDDWLAWYQQKPGQAPRLLIYTASNRATGIPARFSGSGSGTDFTLTISSLEPEDFAVYYCQQYHHWPLTFGQGTKVEIKR
notes: IgG4-PAA; whole chains
binds: [1] | [2] | [3] | [4] | [5]

B2: IAPB62 (antibody, human IgG4 S228P, kappa, F234A L235A, V domains shown)
VH: QVQLVQSGSELKKPGASVKVSCKASGYTFNTYAMNWVRQAPGQGLEWMGWINTNTGNPTYAQGFTGRFVFSLDTSVSTAYLQISSLKAEDTAVYYCARRYFDWLLGAFDIWGQGTMVTVSS
VL: DIQMTQSPSSVSASVGDRVTITCRASQGISSWLAWYQQKPGKAPKLLIYAASSLQSGVPSRFSGSGSGTDFTLTISSLQPEDFATYYCQQANSFPLTFGGGTKVEIKR
notes: IgG4-PAA; whole chains
binds: [2] | [3] | [5]
